Results as given in paper PMC12236752.
pKd: −log10 of the molar value.

Target: Avs8A (ECOR07), fused to 6xHis-SUMO (E. coli ECOR07) (UniProt B7LDL1)
Test: MST

Basel 21 major capsid protein (natural protein)
pKd: 7.85
